In the supplement of paper PMC7125110:
± gives the standard error. For some of these results: This sample holds only a part of the variants without activity.

B1: glmS ribozyme (parent)
chain: AUAAAAGCGCCAGAACUACAGAAAUGUAGUUGACGAGGAGGAGGUUUAUCGAAUUUUCGGCGGAUGCCUCCAAA

How the values were obtained:
Conditions in all cases: with glucosamine-6-phosphate
[1] = variants of: B1; assay: kcat; higher = faster cleavage; RNA array
How it was run: (§1)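 Barcoded ribozyme variants were transcribed in situ on sequenced MiSeq chips by E. coli RNA polymerase. At 37 °C, a hybridised Cy3 probe tracked them while glucosamine-6-phosphate (40 μM to 10 mM) in HEPES/KCl/Mg(OAc)2 buffer flowed in and tiles were imaged over ~14 h. Per-tile medians of signals normalised to baseline and to non-cleaving reference variants were fit to one- or two-exponential decays, giving kobs. kcat and KM came from weighted Michaelis–Menten fits across concentrations.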

[2] = variants of: B1; assay: KM; higher = weaker cofactor use; RNA array
How it was run: as §1

[3] = variants of: B1; assay: self-cleavage kobs at 640 uM GlcN6P; higher = faster cleavage; RNA array
How it was run: as §1

[4] = variants of: B1; assay: self-cleavage kobs at 2500 uM GlcN6P; higher = faster cleavage; RNA array
How it was run: as §1

[5] = variants of: B1; assay: self-cleavage kobs at 10000 uM GlcN6P; higher = faster cleavage; RNA array
How it was run: as §1

[6] = variants of: B1; assay: self-cleavage kobs at 40 uM GlcN6P; higher = faster cleavage; RNA array
How it was run: as §1

[7] = variants of: B1; assay: self-cleavage kobs at 160 uM GlcN6P; higher = faster cleavage; RNA array
How it was run: as §1

Row | Variant | kcat [1] [s⁻¹] | KM [2] [µM] | self-cleavage kobs at 640 uM GlcN6P [3] [s⁻¹] | self-cleavage kobs at 2500 uM GlcN6P [4] [s⁻¹] | self-cleavage kobs at 10000 uM GlcN6P [5] [s⁻¹] | self-cleavage kobs at 40 uM GlcN6P [6] [s⁻¹] | self-cleavage kobs at 160 uM GlcN6P [7] [s⁻¹]
1 | AUAAAUGCGCCAGAACUACAGAAAUGUAGUUGACGAGGAGGAGGUUUAUCGAAUUUUCGGCGGAUGCUUCCAAA | 8.73e-05 ± 5.1e-06 | 491 ± 140 | 4.75e-05 ± 8.3e-06 | 8.07e-05 ± 9e-06 | 8e-05 ± 7.3e-06 | – | –
2 | AUAAAUGCGCCAGAACUACAGAAAUGUAGUUGACGAGGAGGAGGUUUAUCGAAUUUUCGGCGGAUGCGUCCAAA | 1.22e-05 ± 3e-06 | – | – | – | – | – | –
3 | AUAAAUGCGCCAGAACUACAGAAAUGUAGUUGACGAGGAGGAGGUUUAUCGAAUUUGCGGCGGAUGGCUCCAAA | 2.88e-05 ± 7.6e-06 | – | – | – | – | – | –
4 | AUAAAAACGCCAGAACUACAGAAAUGUAGUUGACGAGGAGGAGGUUUAUCGAAUUUUCGGCGGAUGCUUCCAAA | 2.24e-05 ± 5.5e-06 | – | – | – | – | – | –
5 | AUAAAAACGCCAGGACUACAGAAAUGUAGUUGACGAGGAGGAGGUUUAUCGAAUUUUCGGCGGAUGCCUCCAAA | 9.79e-05 ± 3.9e-06 | 3550 ± 470 | – | 3.92e-05 ± 1.5e-05 | 7.23e-05 ± 6.8e-06 | – | –
6 | AUAAAUGCGCCAGAACUACAGAAAUGUAUUUGACGAGGAGGAGGUUUAUCGAAUUUUCGGCGGAUGCCUCCAAA | 5.83e-05 ± 3.7e-06 | 5560 ± 690 | – | – | 3.74e-05 ± 1.7e-05 | < 1e-05 | –
7 | AUAAAAACGCCAGAACUACAGAAAUGUAGUUGACGAGGAGGAGGUUUAUCGAAUUUUCGGCUGAUGCCUCCAAA | < 1e-05 | – | < 1e-05 | – | < 1e-05 | < 1e-05 | –
8 | AUAAAUGCGCCAGAACUACAGAAAUGUAGUUGACGAGGAGGAGGUUUAUCGAAUUUUCGGCGGAUGGCUCCAAA | 1.15e-05 ± 1.2e-06 | – | – | – | – | – | –
9 | AUAAAUGCGCCAGAACUACAGAAAUGUAGUUGACGAGGAGGAGGUUUAUCGAAUUUUCGGCGGAUGUCUCCAAA | 8.67e-05 ± 4.7e-06 | 565 ± 160 | 4.42e-05 ± 8.6e-06 | 8.14e-05 ± 1.1e-05 | 8.01e-05 ± 6.2e-06 | – | –
10 | AUAAAUGCGCCAGAACUACAGAAAUGUAGUUGACGAGCAGGAGGUUUAUCGAAUUUUCGGCGGAUGCCUCCAAA | < 1e-05 | 3580 ± 1000 | < 1e-05 | – | – | < 1e-05 | < 1e-05
11 | AUAAAAACGCCAGAGCUACAGAAAUGUAGUUGACGAGGAGGAGGUUUAUCGAAGUUUCGGCGGAUGCCUCCAAA | 3.72e-05 ± 1.5e-05 | – | – | – | – | < 1e-05 | < 1e-05
12 | AUAAAUGCGCCAGAACUACAGAAAUGUAGUUGACGAGGAGGAGGUGUAUCGAAUUUUCGGCGGAUGCCUCCAAA | 0.000103 ± 5.5e-06 | 7260 ± 730 | – | 2.66e-05 ± 1.1e-05 | 5.95e-05 ± 1.5e-05 | – | –
13 | AUAAAUGCGCCAGAACUACAGAAAUGUAGUUGACGAGGAGGAGGUAUAUCGAAUUUUCGGCGGAUGCCUCCAAA | 0.000115 ± 1.6e-05 | – | – | – | – | – | –
14 | AUAAAUGCGCCAGAACUACAGAAAUGUAGUUGACGAGGAGGAGGUUUAUCAAAUUUUCGGCGGAUGCCUCAAAA | 5.19e-05 ± 1.7e-05 | – | – | – | – | – | –
15 | AUAAAAACGCCAGAACUACAGAAAUGUAGUUGACGAGGUGGAGGUUUAUCGAAUUUUCGGCGGAUGCCUCCAAA | 1.87e-05 ± 1.7e-06 | 2780 ± 970 | – | – | – | – | –
16 | AUAAAUGCGCCAGAACUACAGAAAUGUAGUUGACGAGGAGGAGGUUAAUCGAAUUUUCGGCGGAUGCCUCCAAA | 0.000155 ± 3.1e-06 | 1890 ± 110 | 3.88e-05 ± 9.8e-06 | 8.84e-05 ± 1.2e-05 | 0.000131 ± 1.3e-05 | – | –
17 | AUAAAUGCGCCAGAACUACAGAAAUGUAGUUGACGAGGAGGAGGUUGAUCGAAUUUUCGGCGGAUGCCUCCAAA | 5.58e-05 ± 2.6e-06 | 564 ± 180 | – | 4.79e-05 ± 7.2e-06 | 5.16e-05 ± 6.8e-06 | – | –
18 | AUAAAAACGCCAGAACUACAGAAAUGUAGUUGACGAGGAGGAGGUUUAUAGAAUUUUCGGCGGAUGCCUCCAAA | < 1e-05 | – | – | < 1e-05 | – | < 1e-05 | < 1e-05
19 | AUAAAUGCGCCAGAACUACAGAAAUGUAGUUGACGAGGAGGAGGUUUAUCGAAUAUUCGGCGGAUGCCUCCAAA | 0.000365 ± 1.1e-05 | 2630 ± 160 | 7.22e-05 ± 1.3e-05 | 0.000173 ± 3.5e-05 | 0.000291 ± 3.4e-05 | – | –
20 | AUAAAUGCGCCAGAACUACAGAAAUGUAGUUGACGAGGAGGAGGAUUAUCGAAUUUUCGGCGGAUGCCUCCAAA | 0.000657 ± 1.8e-05 | 2490 ± 130 | 0.000134 ± 2e-05 | 0.000337 ± 6.4e-05 | 0.000523 ± 7.7e-05 | – | –
21 | AUAAAUGCGCCAGAACUACAGAAAUGUAGUUGACGAGGAGAAGGUUUAUCGAAUUUUCGGCGGAUGCCUCCAAA | 1.73e-05 ± 2.5e-06 | – | < 1e-05 | – | – | < 1e-05 | < 1e-05
22 | AUAAAUGCGCCAGAACUACAGAAAUGUAGUUGACGAGGAAGAGGUUUAUCGAAUUUUCGGCGGAUGCCUCCAAA | 5.46e-05 ± 2e-06 | 1650 ± 280 | – | 3.37e-05 ± 1e-05 | 4.67e-05 ± 7e-06 | – | –
23 | AUAAAUGCGCCAGAACUACAGAAAUGUAGUUGACGAUGAGGAGGUUUAUCGAAUUUUCGGCGGAUGCCUCCAAA | < 1e-05 | – | – | < 1e-05 | – | – | < 1e-05
